The Kd is the concentration at which binding is half-saturated. Lower therefore signals higher affinity. Broadly, the IC50 is the concentration that inhibits the measured activity by half. Low values mean higher potency, high ones lower potency. Broadly, the stoichiometry N is the number of molecules, sites or subunits per partner or assembly.

Data set [1] deals with NS1 RBD H5N1 (Influenza A virus (H5N1; allele A)) (UniProt Q5H7J4). Description: EMSA. (In general: In EMSA bound probe runs differently from free probe, usually more slowly.)
Data set [2] has as its target NS1 RBD H3N2 (Influenza A virus (H3N2)) (UniProt I6T1Z2). Description: EMSA.
Data set [3] deals with NS1 RBD pdmH1N1 (Influenza A virus (pandemic H1N1)). Description: EMSA.
The target of data set [4] is NS1 RBD H5N1 (Influenza A virus (H5N1; allele A)) (UniProt Q5H7J4). Description: competition EMSA.
Data set [5] addresses T1, NS1 RBD H7N1 (Influenza A virus (avian H7N1; allele B)) (UniProt Q1PST0).
T1 sequence: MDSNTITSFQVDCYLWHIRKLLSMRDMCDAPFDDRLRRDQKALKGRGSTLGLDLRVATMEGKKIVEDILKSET
Nature of the data set: competition EMSA.

The target in data set [6] is wild type H7N1 NS1 RBD (RNA-binding domain of influenza A virus non-structural protein NS1, residues 1-73) (influenza A virus (avian H7N1)). Nature of the data set: crystal structure.

For “GGUAACUGUUACAGUUACC / GGUAACUGUUACAGUUACC [AWFC01]”, the dissociation constant Kd in data set [1] is 0.98 nM; in data set [2] it was 3.7 nM; in data set [3], 2.05 nM. Also, the IC50 in data set [4] turned out to be 1 nM.
On to “GGUAACUGUAGAGGUUACAGAGAUGUAACCUCACCAGUUACC [shDM03-GAGA]”, for which the values for the 50% inhibitory concentration (IC50) in data set [4] and in data set [5] were 1.2 nM and 0.64 nM, respectively.
In the case of “GGUAACCACAUGAGUUACAGCAAAAGACCUGUGUAACUCAUGCUGUUACC [DM01-midi]”, the IC50 in data set [4] was 2.2 nM; in data set [5], 2.7 nM.
In the case of “GGUAACUGUAGAGGUUACAGAGAUGUAACCUCUACAGUUACC [shDM02-GAGA]”, the IC50 in data set [4] turned out to be 0.41 nM; in data set [5] it was 0.24 nM.
On to “CGCCUGUGUAGAGGUUACAGAGAUGUAACCUCACCACAGGCG [shDM05-GAGA]”, for which the IC50 in data set [4] is 100 nM.
“GGUAACUGUAGAGGAUGGAGAGAUCCAUCCUCUACAGUUACC [shDM06-GAGA]”: the IC50 came out at 1.1 nM in data set [4] and 0.85 nM in data set [5].
Substance “wild type H7N1 NS1 RBD (RNA-binding domain of influenza A virus non-structural protein NS1, residues 1-73) (domain or fragment)” displayed a stoichiometry N in data set [6] of 2.
In the case of “GGUAACAACUCGUCAUAGGUCACUUGAUUGAAGUAUGACGGGCUGUUACC [DM03-midi]”, the IC50 in data set [4] came to 1.8 nM; in data set [5], 2.8 nM.
The substance “AGACAGCAUUAUGCUGUCUUU / AGACAGCAUUAUGCUGUCUUU [ZKO]” showed an IC50 in data set [4] of 90 nM.
